Patent publication US10434147B2, “Treatment type 2 diabetes mellitus patients” (Sanofi-Aventis Deutschland GmbH, priority 2015, dated 2019)

Tested on: Patients with Type 2 Diabetes Insufficiently Controlled with Insulin Glargine with or without Metformin
Assay: Treatment-emergent adverse events, 26-week study
Type: in vivo, human
From the text: FIG. 6—Graphical study design. ^1 Insulin glargine should be injected subcutaneously once daily at dinner or breakfast time (according to patient's/investigators' preference). […] Meal used for insulin glulisine dosing should remain the same throughout the 26-week treatment period. ^4 Injection of insulin glulisine prior to breakfast, lunch and dinner.
Co-primary endpoints at 26 weeks were (1) non-inferiority (95% CI upper bound <0.4%) in HbA1c reduction with LIXI vs GLU-1 and (2) for LIXI vs GLU-3, either non-inferiority in HbA1c reduction (2a) OR superiority (one-sided α≤0.025) in body weight change (2b). FPG, PPG, IG dose, composite outcomes, AEs, and hypoglycemia were assessed.

[1] = Safety population, PT ≥ 3% table

Insulin Glulisine QD: insulin glulisine once daily, added to insulin glargine ± metformin (comparator arm)
Patients with any TEAE leading to death (Safety population): 0 n (%) | Patients with treatment emergent SAE: Accidental overdose (Safety population): 2 (0.7%) n (%) | Patients with TEAE: Accidental overdose [1]: 13 (4.3%) n (%) | Patients with TEAE: Headache [1]: 8 (2.7%) n (%) | Patients with TEAE: Hypoglycaemia [1]: 140 (46.5%) n (%) | Patients with TEAE: Infections and infestations (SOC) [1]: 70 (23.3%) n (%) | Patients with TEAE: Influenza [1]: 8 (2.7%) n (%) | Patients with TEAE: Injury, poisoning and procedural complications (SOC) [1]: 20 (6.6%) n (%) | Patients with TEAE: Investigations (SOC) [1]: 76 (25.2%) n (%) | Patients with TEAE: Metabolism and nutrition disorders (SOC) [1]: 143 (47.5%) n (%) | Adjudicated by PSAC: Acute on chronic pancreatitis (in vivo): 0 n (%) | Adjudicated by PSAC: Acute pancreatitis (in vivo): 0 n (%) | Adjudicated by PSAC: Chronic pancreatitis (in vivo): 0 n (%) | Adjudicated by PSAC: Unknown pancreatitis (in vivo): 0 n (%) | Gastrointestinal AEs: Diarrhea (in vivo): 10 (3) n (%) | Gastrointestinal AEs: Nausea (in vivo): 5 (2) n (%) | Gastrointestinal AEs: Vomiting (in vivo): 5 (2) n (%) | Patients with TEAE on the specific adverse event form for increased calcitonin (>=20 ng/L): Any (in vivo): 0 n (%) | Patients with TEAE on the specific adverse event form for increased calcitonin (>=20 ng/L): Blood calcitonin increased (in vivo): 0 n (%) | Patients with TEAE: Any class (in vivo): 222 (73.8%) n (%) | Patients with TEAE: Blood glucose decreased (in vivo): 67 (22.3%) n (%) | Patients with TEAE: Diarrhoea (in vivo): 10 (3.3%) n (%) | Patients with TEAE: Gastrointestinal disorders (SOC) (in vivo): 26 (8.6%) n (%) | Patients with TEAE: Nasopharyngitis (in vivo): 21 (7.0%) n (%) | Patients with TEAE: Nausea (in vivo): 5 (1.7%) n (%) | Patients with TEAE: Nervous system disorders (SOC) (in vivo): 22 (7.3%) n (%) | Patients with TEAE: Upper respiratory tract infection (in vivo): 5 (1.7%) n (%) | Patients with TEAE: Vomiting (in vivo): 5 (1.7%) n (%) | Patients with any TEAE (in vivo): 222 (73.8%) n (%) | Patients with any TEAE leading to permanent treatment discontinuation (in vivo): 2 (0.7%) n (%) | Patients with any treatment emergent SAE (in vivo): 11 (3.7%) n (%) | Patients with events adjudicated as allergic reaction by ARAC: All, Any category, Any event (in vivo): 0 n (%) | Patients with events adjudicated as allergic reaction by ARAC: OTHER ALLERGIC REACTION, Rhinitis allergic (in vivo): 0 n (%) | Patients with events adjudicated as allergic reaction by ARAC: Possibly Related to IMP, Any event (in vivo): 0 n (%) | Patients with events adjudicated as allergic reaction by ARAC: URTICARIA (HIVES), Urticaria (in vivo): 0 n (%) | Patients with treatment emergent SAE: Abdominal pain (in vivo): 0 n (%) | Patients with treatment emergent SAE: Angina pectoris (in vivo): 0 n (%) | Patients with treatment emergent SAE: Angina unstable (in vivo): 1 (0.3%) n (%) | Patients with treatment emergent SAE: Ankle fracture (in vivo): 1 (0.3%) n (%) | Patients with treatment emergent SAE: Any class (in vivo): 11 (3.7%) n (%) | Patients with treatment emergent SAE: Atrial fibrillation (in vivo): 1 (0.3%) n (%) | Patients with treatment emergent SAE: Atrioventricular block complete (in vivo): 0 n (%) | Patients with treatment emergent SAE: Basal cell carcinoma (in vivo): 0 n (%) | Patients with treatment emergent SAE: Cardiac disorders (SOC) (in vivo): 3 (1.0%) n (%) | Patients with treatment emergent SAE: Cardiac failure chronic (in vivo): 0 n (%) | Patients with treatment emergent SAE: Cardiac failure congestive (in vivo): 0 n (%) | Patients with treatment emergent SAE: Cellulitis (in vivo): 1 (0.3%) n (%) | Patients with treatment emergent SAE: Cerebrovascular accident (in vivo): 0 n (%) | Patients with treatment emergent SAE: Decreased appetite (in vivo): 0 n (%) | Patients with treatment emergent SAE: Dehydration (in vivo): 1 (0.3%) n (%) | Patients with treatment emergent SAE: Diabetic bullosis (in vivo): 0 n (%) | Patients with treatment emergent SAE: Epigastric discomfort (in vivo): 0 n (%) | Patients with treatment emergent SAE: Erysipelas (in vivo): 0 n (%) | Patients with treatment emergent SAE: Gastric ulcer haemorrhage (in vivo): 0 n (%) | Patients with treatment emergent SAE: Gastrointestinal disorders (SOC) (in vivo): 0 n (%) | Patients with treatment emergent SAE: Hepatic mass (in vivo): 0 n (%) | Patients with treatment emergent SAE: Hepatobiliary disorders (SOC) (in vivo): 0 n (%) | Patients with treatment emergent SAE: Hypertension (in vivo): 0 n (%) | Patients with treatment emergent SAE: Hypoglycaemia (in vivo): 1 (0.3%) n (%) | Patients with treatment emergent SAE: Hypoglycaemic unconsciousness (in vivo): 2 (0.7%) n (%) | Patients with treatment emergent SAE: Incisional hernia (in vivo): 1 (0.3%) n (%) | Patients with treatment emergent SAE: Infections and infestations (SOC) (in vivo): 1 (0.3%) n (%) | Patients with treatment emergent SAE: Injury, poisoning and procedural complications (SOC) (in vivo): 4 (1.3%) n (%) | Patients with treatment emergent SAE: Invasive ductal breast carcinoma (in vivo): 0 n (%) | Patients with treatment emergent SAE: Metabolism and nutrition disorders (SOC) (in vivo): 2 (0.7%) n (%) | Patients with treatment emergent SAE: Myocardial infarction (in vivo): 1 (0.3%) n (%) | Patients with treatment emergent SAE: Myocardial ischaemia (in vivo): 0 n (%) | Patients with treatment emergent SAE: Neoplasm malignant (in vivo): 0 n (%) | Patients with treatment emergent SAE: Neoplasms benign, malignant and unspecified (incl cysts and polyps) (SOC) (in vivo): 0 n (%) | Patients with treatment emergent SAE: Nervous system disorders (SOC) (in vivo): 3 (1.0%) n (%) | Patients with treatment emergent SAE: Neuritis cranial (in vivo): 1 (0.3%) n (%) | Patients with treatment emergent SAE: Pancreatic carcinoma metastatic (in vivo): 0 n (%) | Patients with treatment emergent SAE: Penile infection (in vivo): 0 n (%) | Patients with treatment emergent SAE: Renal and urinary disorders (SOC) (in vivo): 0 n (%) | Patients with treatment emergent SAE: Renal failure (in vivo): 0 n (%) | Patients with treatment emergent SAE: Renal failure acute (in vivo): 0 n (%) | Patients with treatment emergent SAE: Septic arthritis staphylococcal (in vivo): 0 n (%) | Patients with treatment emergent SAE: Skin and subcutaneous tissue disorders (SOC) (in vivo): 0 n (%) | Patients with treatment emergent SAE: Skin ulcer haemorrhage (in vivo): 0 n (%) | Patients with treatment emergent SAE: Uterine cancer (in vivo): 0 n (%) | Patients with treatment emergent SAE: Vascular disorders (SOC) (in vivo): 0 n (%) | TEAE leading to permanent treatment discontinuation: Abdominal pain (in vivo): 0 n (%) | TEAE leading to permanent treatment discontinuation: Any class (in vivo): 2 (0.7%) n (%) | TEAE leading to permanent treatment discontinuation: Ascites (in vivo): 0 n (%) | TEAE leading to permanent treatment discontinuation: Blood and lymphatic system disorders (SOC) (in vivo): 0 n (%) | TEAE leading to permanent treatment discontinuation: Blood glucose decreased (in vivo): 1 (0.3%) n (%) | TEAE leading to permanent treatment discontinuation: Cardiac disorders (SOC) (in vivo): 0 n (%) | TEAE leading to permanent treatment discontinuation: Cardiac failure chronic (in vivo): 0 n (%) | TEAE leading to permanent treatment discontinuation: Cough (in vivo): 0 n (%) | TEAE leading to permanent treatment discontinuation: Decreased appetite (in vivo): 0 n (%) | TEAE leading to permanent treatment discontinuation: Dehydration (in vivo): 0 n (%) | TEAE leading to permanent treatment discontinuation: Diabetic bullosis (in vivo): 0 n (%) | TEAE leading to permanent treatment discontinuation: Diarrhoea (in vivo): 0 n (%) | TEAE leading to permanent treatment discontinuation: Dyspepsia (in vivo): 0 n (%) | TEAE leading to permanent treatment discontinuation: Epigastric discomfort (in vivo): 0 n (%) | TEAE leading to permanent treatment discontinuation: Gastric ulcer haemorrhage (in vivo): 0 n (%) | TEAE leading to permanent treatment discontinuation: Gastrointestinal disorders (SOC) (in vivo): 0 n (%) | TEAE leading to permanent treatment discontinuation: Headache (in vivo): 0 n (%) | TEAE leading to permanent treatment discontinuation: Hepatic mass (in vivo): 0 n (%) | TEAE leading to permanent treatment discontinuation: Hepatobiliary disorders (SOC) (in vivo): 0 n (%) | TEAE leading to permanent treatment discontinuation: Hot flush (in vivo): 0 n (%) | TEAE leading to permanent treatment discontinuation: Hypoglycaemia (in vivo): 0 n (%) | TEAE leading to permanent treatment discontinuation: Immune system disorders (SOC) (in vivo): 0 n (%) | TEAE leading to permanent treatment discontinuation: Invasive ductal breast carcinoma (in vivo): 0 n (%) | TEAE leading to permanent treatment discontinuation: Investigations (SOC) (in vivo): 1 (0.3%) n (%) | TEAE leading to permanent treatment discontinuation: Lymphadenopathy (in vivo): 0 n (%) | TEAE leading to permanent treatment discontinuation: Metabolism and nutrition disorders (SOC) (in vivo): 0 n (%) | TEAE leading to permanent treatment discontinuation: Metastases to liver (in vivo): 0 n (%) | TEAE leading to permanent treatment discontinuation: Metastases to peritoneum (in vivo): 0 n (%) | TEAE leading to permanent treatment discontinuation: Nasal congestion (in vivo): 0 n (%) | TEAE leading to permanent treatment discontinuation: Nausea (in vivo): 0 n (%) | TEAE leading to permanent treatment discontinuation: Neoplasms benign, malignant and unspecified (incl cysts and polyps) (SOC) (in vivo): 0 n (%) | TEAE leading to permanent treatment discontinuation: Nervous system disorders (SOC) (in vivo): 1 (0.3%) n (%) | TEAE leading to permanent treatment discontinuation: Pancreatic carcinoma metastatic (in vivo): 0 n (%) | TEAE leading to permanent treatment discontinuation: Renal and urinary disorders (SOC) (in vivo): 0 n (%) | TEAE leading to permanent treatment discontinuation: Renal failure (in vivo): 0 n (%) | TEAE leading to permanent treatment discontinuation: Respiratory, thoracic and mediastinal disorders (SOC) (in vivo): 0 n (%) | TEAE leading to permanent treatment discontinuation: Seasonal allergy (in vivo): 0 n (%) | TEAE leading to permanent treatment discontinuation: Skin and subcutaneous tissue disorders (SOC) (in vivo): 0 n (%) | TEAE leading to permanent treatment discontinuation: Skin ulcer haemorrhage (in vivo): 0 n (%) | TEAE leading to permanent treatment discontinuation: Thrombosis (in vivo): 0 n (%) | TEAE leading to permanent treatment discontinuation: Tremor (in vivo): 1 (0.3%) n (%) | TEAE leading to permanent treatment discontinuation: Vascular disorders (SOC) (in vivo): 0 n (%) | TEAE leading to permanent treatment discontinuation: Vomiting (in vivo): 0 n (%) | Total number of patients with any event adjudicated as pancreatitis by PSAC (in vivo): 0 n (%)
